In publication PMC8630191, “Regulation of PP2A, PP4, and PP6 holoenzyme assembly by carboxyl-terminal methylation” (Scientific Reports, 2021):

Legend:
Settings in all cases: partners not purified
[1] = target: T1, 3xFLAG-tagged PP2Acβ ΔL mutant (Leu 309 deleted) (human, UniProt P62714 1-309, ΔL309); assay: affinity purification with mass spectrometry; 3xFLAG-tagged catalytic subunit (WT or ΔL) transfected in FreeStyle 293F cells; FLAG M2 affinity gel, 3 h at 4 °C; lysis and wash buffer 50 mM Tris pH 7.5, 500 mM NaCl, 0.5% Triton X-100; eluted with 3XFLAG peptide; label-free quantitative LC-MS/MS on unique peptides, three replicates
T1 construct: PP2A catalytic subunit, beta isoform (PP2Acβ, PPP2CB), human, in p3XFLAG-CMV10; C-terminal Leu 309 deleted by inserting a stop codon; also called ΔL309

[2] = target: T2, PP2A catalytic subunit PP2Acα/β, endogenous (human (endogenous in HEK293T, HeLa, …, UniProt P67775 1-309, carboxyl methyl ester on the C-terminal leucine in wild-type cells; strongly reduced in LCMT1 hypomorph cells); assay: affinity purification with mass spectrometry; PIB-MS: phosphatase inhibitor beads (microcystin-LR on sepharose) on HeLa lysates, wild type and LCMT1 hypomorph clone; label-free LC-MS/MS; subunits normalised to the respective catalytic subunit
T2 construct: PP2A catalytic subunit, alpha (PPP2CA) or beta (PPP2CB) isoform; One molecule for wild-type and LCMT1 hypomorph cells; also called PP2Acβ; PPP2CA/B

[3] = target: T2, PP2A catalytic subunit PP2Acα/β, …; assay: affinity purification with mass spectrometry; PIB-MS: phosphatase inhibitor beads (microcystin-LR on sepharose) on Rpe1 lysates, wild type and pooled LCMT1 hypomorph cells; label-free LC-MS/MS; subunits normalised to the respective catalytic subunit

T1 sequence (P62714 1-308, stated change not applied): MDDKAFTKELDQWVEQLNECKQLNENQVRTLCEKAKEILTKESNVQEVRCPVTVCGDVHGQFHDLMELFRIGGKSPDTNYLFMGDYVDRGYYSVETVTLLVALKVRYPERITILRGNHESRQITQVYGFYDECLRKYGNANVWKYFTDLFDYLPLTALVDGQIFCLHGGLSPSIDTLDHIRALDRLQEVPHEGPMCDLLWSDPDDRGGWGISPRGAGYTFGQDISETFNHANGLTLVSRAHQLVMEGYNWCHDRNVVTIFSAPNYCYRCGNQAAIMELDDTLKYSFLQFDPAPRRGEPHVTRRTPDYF
T2 sequence (P67775 whole entry, canonical isoform): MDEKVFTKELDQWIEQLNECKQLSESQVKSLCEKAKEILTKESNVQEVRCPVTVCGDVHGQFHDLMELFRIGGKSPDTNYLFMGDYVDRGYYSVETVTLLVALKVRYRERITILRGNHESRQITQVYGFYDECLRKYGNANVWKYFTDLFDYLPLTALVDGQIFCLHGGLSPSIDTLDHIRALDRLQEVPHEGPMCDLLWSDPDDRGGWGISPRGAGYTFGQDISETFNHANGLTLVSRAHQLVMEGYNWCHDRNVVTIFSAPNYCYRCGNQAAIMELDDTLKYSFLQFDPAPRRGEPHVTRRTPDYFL

B1: B56α, PP2A regulatory subunit (natural protein)
chain: not shown
notes: PP2A regulatory subunit B56, alpha isoform
With B1 the “fold reduction of binding, ΔL against WT” value [1] was 32 fold.

B2: PR65β, PP2A scaffolding (A) subunit (natural protein, UniProt P30154 1-601, looked up)
chain: MAGASELGTGPGAAGGDGDDSLYPIAVLIDELRNEDVQLRLNSIKKLSTIALALGVERTRSELLPFLTDTIYDEDEVLLALAEQLGNFTGLVGGPDFAHCLLPPLENLATVEETVVRDKAVESLRQISQEHTPVALEAYFVPLVKRLASGDWFTSRTSACGLFSVCYPRASNAVKAEIRQQFRSLCSDDTPMVRRAAASKLGEFAKVLELDSVKSEIVPLFTSLASDEQDSVRLLAVEACVSIAQLLSQDDLETLVMPTLRQAAEDKSWRVRYMVADRFSELQKAMGPKITLNDLIPAFQNLLKDCEAEVRAAAAHKVKELGENLPIEDRETIIMNQILPYIKELVSDTNQHVKSALASVIMGLSTILGKENTIEHLLPLFLAQLKDECPDVRLNIISNLDCVNEVIGIRQLSQSLLPAIVELAEDAKWRVRLAIIEYMPLLAGQLGVEFFDEKLNSLCMAWLVDHVYAIREAATNNLMKLVQKFGTEWAQNTIVPKVLVMANDPNYLHRMTTLFCINALSEACGQEITTKQMLPIVLKMAGDQVANVRFNVAKSLQKIGPILDTNALQGEVKPVLQKLGQDEDMDVKYFAQEAISVLALA
notes: PP2A scaffolding subunit A, beta isoform (PR65β)
For B2, the “fold reduction of binding, ΔL against WT” value [1] was about 2 fold.

B3: B56δ, PP2A regulatory subunit (natural protein)
chain: not shown
notes: PP2A regulatory subunit B56, delta isoform
B3 was tested, and the “fold reduction of binding, ΔL against WT” value [1] was 2 fold.

B4: B55β, PP2A regulatory subunit (natural protein, human (endogenous in HeLa), UniProt Q00005 1-443, looked up)
chain: MEEDIDTRKINNSFLRDHSYATEADIISTVEFNHTGELLATGDKGGRVVIFQREQESKNQVHRRGEYNVYSTFQSHEPEFDYLKSLEIEEKINKIRWLPQQNAAYFLLSTNDKTVKLWKVSERDKRPEGYNLKDEEGRLRDPATITTLRVPVLRPMDLMVEATPRRVFANAHTYHINSISVNSDYETYMSADDLRINLWNFEITNQSFNIVDIKPANMEELTEVITAAEFHPHHCNTFVYSSSKGTIRLCDMRASALCDRHTKFFEEPEDPSNRSFFSEIISSISDVKFSHSGRYIMTRDYLTVKVWDLNMENRPIETYQVHDYLRSKLCSLYENDCIFDKFECVWNGSDSVIMTGSYNNFFRMFDRNTKRDVTLEASRENSKPRAILKPRKVCVGGKRRKDEISVDSLDFSKKILHTAWHPSENIIAVAATNNLYIFQDKVN
notes: PP2A regulatory subunit B55, beta isoform; source: endogenous, HeLa lysate
For B4, the “fold reduction of binding, LCMT1 HM against WT cells” value (from here on “fold reduction of binding, LCMT1 HM”) [2] was about 4 fold.

B5: B56ε, PP2A regulatory subunit (natural protein)
chain: not shown
notes: PP2A regulatory subunit B56, epsilon isoform
With B5 the “fold more reduced in binding (LCMT1 HM against WT cells) than B56γ and B56δ” value [2] was 8 fold and the “fold reduction of binding, ΔL against WT” value [1] was 11 fold.

B6: STRN3 (striatin-3) (natural protein, human (endogenous in Rpe1), UniProt Q13033 1-797, looked up)
chain: MDELAGGGGGGPGMAAPPRQQQGPGGNLGLSPGGNGAAGGGGPPASEGAGPAAGPELSRPQQYTIPGILHYIQHEWARFEMERAHWEVERAELQARIAFLQGERKGQENLKKDLVRRIKMLEYALKQERAKYHKLKYGTELNQGDLKMPTFESEETKDTEAPTAPQNSQLTWKQGRQLLRQYLQEVGYTDTILDVRSQRVRSLLGLSNSEPNGSVETKNLEQILNGGESPKQKGQEIKRSSGDVLETFNFLENADDSDEDEENDMIEGIPEGKDKHRMNKHKIGNEGLAADLTDDPDTEEALKEFDFLVTAEDGEGAGEARSSGDGTEWDKDDLSPTAEVWDVDQGLISKLKEQYKKERKGKKGVKRANRTKLYDMIADLGDDELPHIPSGIINQSRSASTRMTDHEGARAEEAEPITFPSGGGKSFIMGSDDVLLSVLGLGDLADLTVTNDADYSYDLPANKDAFRKTWNPKYTLRSHFDGVRALAFHPVEPVLVTASEDHTLKLWNLQKTVPAKKSASLDVEPIYTFRAHIGPVLSLAISSNGEQCFSGGIDATIQWWNMPSPSVDPYDTYEPNVLAGTLVGHTDAVWGLAYSGIKNQLLSCSADGTVRLWNPQEKLPCICTYNGDKKHGIPTSVDFIGCDPAHMVTSFNTGSAVIYDLETSQSLVILSSQVDSGLQSNNHINRVVSHPTLPVTITAHEDRHIKFFDNKTGKMIHSMVAHLDAVTSLAVDPNGIYLMSGSHDCSIRLWNLDSKTCVQEITAHRKKLDESIYDVAFHSSKAYIASAGADALAKVFV
notes: Striatin-3, PP2A regulatory subunit of the striatin family (B'''); source: endogenous, Rpe1 lysate
With B6 the “fold reduction of binding, LCMT1 HM” value [3] was 4 fold.

B7: B55α, PP2A regulatory subunit (natural protein, human (endogenous in HeLa), UniProt P63151 1-447, looked up)
chain: MAGAGGGNDIQWCFSQVKGAVDDDVAEADIISTVEFNHSGELLATGDKGGRVVIFQQEQENKIQSHSRGEYNVYSTFQSHEPEFDYLKSLEIEEKINKIRWLPQKNAAQFLLSTNDKTIKLWKISERDKRPEGYNLKEEDGRYRDPTTVTTLRVPVFRPMDLMVEASPRRIFANAHTYHINSISINSDYETYLSADDLRINLWHLEITDRSFNIVDIKPANMEELTEVITAAEFHPNSCNTFVYSSSKGTIRLCDMRASALCDRHSKLFEEPEDPSNRSFFSEIISSISDVKFSHSGRYMMTRDYLSVKIWDLNMENRPVETYQVHEYLRSKLCSLYENDCIFDKFECCWNGSDSVVMTGSYNNFFRMFDRNTKRDITLEASRENNKPRTVLKPRKVCASGKRKKDEISVDSLDFNKKILHTAWHPKENIIAVATTNNLYIFQDKVN
notes: PP2A regulatory subunit B55, alpha isoform; source: endogenous, HeLa lysate
With B7 the “fold reduction of binding, LCMT1 HM” value [2] was about 11 fold.

B8: STRN (striatin) (natural protein, human (endogenous in Rpe1), UniProt O43815 1-780, looked up)
chain: MDEQAGPGVFFSNNHPGAGGAKGLGPLAEAAAAGDGAAAAGAARAQYSLPGILHFLQHEWARFEVERAQWEVERAELQAQIAFLQGERKGQENLKKDLVRRIKMLEYALKQERAKYHKLKYGTELNQGDMKPPSYDSDEGNETEVQPQQNSQLMWKQGRQLLRQYLQEVGYTDTILDVKSKRVRALLGFSSDVTDREDDKNQDSVVNGTEAEVKETAMIAKSELTDSASVLDNFKFLESAAADFSDEDEDDDVDGREKSVIDTSTIVRKKALPDSGEDRDTKEALKEFDFLVTSEEGDNESRSAGDGTDWEKEDQCLMPEAWNVDQGVITKLKEQYKKERKGKKGVKRPNRSKLQDMLANLRDVDELPSLQPSVGSPSRPSSSRLPEHEINRADEVEALTFPPSSGKSFIMGADEALESELGLGELAGLTVANEADSLTYDIANNKDALRKTWNPKFTLRSHFDGIRALAFHPIEPVLITASEDHTLKMWNLQKTAPAKKSTSLDVEPIYTFRAHKGPVLCVVMSSNGEQCYSGGTDGLIQGWNTTNPNIDPYDSYDPSVLRGPLLGHTDAVWGLAYSAAHQRLLSCSADGTLRLWNTTEVAPALSVFNDTKELGIPASVDLVSSDPSHMVASFSKGYTSIFNMETQQRILTLESNVDTTANSSCQINRVISHPTLPISITAHEDRHIKFYDNNTGKLIHSMVAHLEAVTSLAVDPNGLYLMSGSHDCSIRLWNLESKTCIQEFTAHRKKFEESIHDVAFHPSKCYIASAGADALAKVFV
notes: Striatin, PP2A regulatory subunit of the striatin family (B'''); source: endogenous, Rpe1 lysate
With B8 the “fold reduction of binding, LCMT1 HM” value [3] was 4 fold.
